Reference: the RNAGym collection of RNA variant scans (doi:10.7554/elife.80360)

B1: Hairpin Ribozyme (parent)
chain: GUCCUCUUUCACGUGCGCGUGAAAGAGAGAAGUGAACCAGAGAAACACACGUUGUGGUAUAUUACCUGGUA

Variants of: B1
Assay: self-cleavage, relative activity (ratio to wild type); higher = more cleavage; co-transcriptional

Row | Variant | self-cleavage
1 | G68A U70A | 0.156
2 | A44G A71C | 0.143
3 | G32C U63C | 0.0888
4 | A36U A47G | 0.172
5 | G29A U52C | 0.156
6 | A43U U52C | 0.143
7 | G13C U33G | 0.207
8 | G1A G40C | 0.167
9 | C18U U67A | 0.109
10 | C3G U7A | 0.321
11 | C10A A49U | 0.172
12 | U7C A61G | 0.164
13 | A47G U60C | 0.135
14 | C4A G57C | 0.156
15 | U2C A31G | 0
16 | A28C G34A | 0.753
17 | A30C A35U | 0.156
18 | U9G U70A | 0.812
19 | G1A C18A | 0.185
20 | C3G A49C | 0.0939
21 | A23C A24C | 0.718
22 | C6U A49U | 0.159
23 | A49C G56C | 0.12
24 | U7A A28U | 0.58

Row | Variant | self-cleavage
25 | G40A A41C | 0.274
26 | A23G | 0.851
27 | U20A U67C | 0.237
28 | A35C A45C | 0.16
29 | C6G G34C | 1.03
30 | A30C A39C | 0.12
31 | G29U A35G | 0.137
32 | U14A U67C | 0.247
33 | U5C G69C | 0.0944
34 | A36G A59U | 0.0811
35 | G1C A61G | 0.202
36 | A35U A59G | 0.18
37 | G34C A36G | 1.24
38 | C38G G69A | 0.196
39 | C16A C46G | 0.143
40 | G34C | 1.4
41 | C65A U67G | 0.197
42 | C50G A71C | 0.69
43 | U14C G34U | 1.54
44 | U7A U53A | 0.879
45 | A41G U67G | 0.5
46 | C10U G15U | 0.843
47 | A26C C66A | 0.34
48 | G57U A71U | 0.223

Row | Variant | self-cleavage
49 | G1A U52A | 0.155
50 | C37A U67G | 0.202
51 | U8C C65A | 0.788
52 | U5C A49G | 0.343
53 | A44G A61C | 0.0999
54 | C3U A49G | 0.409
55 | C6A U70A | 0.598
56 | U5G U14G | 0.152
57 | A45G U52C | 0.0811
58 | U2G C38U | 0.24
59 | A45C U60A | 0.174
60 | A44C A49U | 0.0612
61 | A28G G29A | 0.13
62 | C12U C50U | 0.431
63 | U2G A11G | 0.306
64 | G17U C37A | 0.26
65 | C37G A43C | 0.108
66 | G27U U67G | 0.111
67 | G54U C65G | 0.145
68 | C3U U58C | 0.738
69 | C12A U52C | 0.768
70 | U14G C18G | 0.694
71 | U14A G56C | 0.168
72 | U5C U60A | 0.392

Row | Variant | self-cleavage
73 | C10G C50U | 0.344
74 | C4G U63G | 0.217
75 | G32A C66U | 0.177
76 | A26G U33G | 0.0904
77 | A26G U33C | 0.0771
78 | U14A U63C | 0.212
79 | G29U A43C | 0.0797
80 | U58C U67A | 0.231
81 | G13U A41C | 0.91
82 | U5C A44G | 0.147
83 | C4A G54A | 0.184
84 | C4U G56U | 0.126
85 | U58C U63G | 0.27
86 | C12U U53G | 0.677
87 | G34U U55G | 1.27
88 | C10U A30G | 0.135
89 | C3G A47U | 0.0452
90 | C10G C16G | 0.559
91 | U5C G13A | 0.591
92 | G51A U70A | 1.09
93 | A30G A36G | 0.0448
94 | A41C C66G | 0.292
95 | U20A G56A | 0.108
96 | C18U G19C | 0.89

Row | Variant | self-cleavage
97 | G29U A41U | 0.116
98 | U2A A39U | 0.127
99 | U58A A61C | 0.0874
100 | C65U U67C | 0.209
101 | A31G C48G | 0.1
102 | G21U G40A | 0.309
103 | G29A A36C | 0.0858
104 | C3U A64G | 0.212
105 | G13U G19C | 0.686
106 | A26U A71C | 1.19
107 | U14A A59C | 0.179
108 | A43U A59G | 0.166
109 | G21A U63C | 0.155
110 | U8A C50A | 0.158
111 | A22U U70G | 0.674
112 | C37A G42C | 0.16
113 | U7A A64G | 0.525
114 | A11U U67G | 0.287
115 | A23G U62C | 0.43
116 | C50U G69C | 0.142
117 | U8A G56U | 0.134
118 | G25A G27U | 0.177
119 | C3A G27A | 0.27
120 | A22C A47C | 0.24

Row | Variant | self-cleavage
121 | U2G U33C | 0.0578
122 | A39C G56U | 0.134
123 | A24C G68A | 0.233
124 | C10A G40A | 0.219
125 | A23G U70C | 0.934
126 | C4G U67A | 0.111
127 | A23G A35C | 1
128 | C16A G54C | 0.432
129 | A11U G27C | 0.184
130 | G15A G17U | 1.05
131 | A28G A71G | 0.941
132 | A28C C50U | 0.168
133 | G29U A36U | 0.104
134 | C4G A49C | 0.161
135 | G15U U63C | 0.14
136 | A39C U55A | 0.148
137 | G40A G54U | 0.183
138 | C50A U62C | 0.147
139 | G13C G69C | 0.199
140 | A11G A41U | 1.14
141 | C6A C16G | 0.351
142 | A22U G40U | 0.115
143 | A24G C48U | 0.179
144 | U5A U58G | 0.251

Row | Variant | self-cleavage
145 | G56U A64U | 0.173
146 | C4A G19C | 0.143
147 | C4G A41U | 0.558
148 | A45C U52A | 0.0823
149 | C12A A30G | 0.206
150 | G21U U53G | 0.907
151 | C12G C50G | 0.176
152 | G54C U60G | 0.27
153 | G17C A35U | 0.44
154 | A44C U67A | 0.113
155 | G15U A49G | 0.539
156 | U20C C48U | 0.175
157 | U20A U53A | 0.758
158 | C12G A39U | 0.32
159 | G13U G15C | 0.608
160 | U52C U55C | 0.536
161 | G1A A11U | 0.302
162 | G27A C46U | 0.127
163 | U9G U62C | 0.323
164 | A35C C37A | 0.269
165 | A22C G69A | 0.448
166 | U58C C66A | 0.201
167 | U9C U55C | 0.134
